The record followed here is publication PMC8764033, “Single-molecule analysis of specificity and multivalency in binding of short linear substrate motifs to the APC/C” (Nature Communications, 2022).

Settings in all cases: both partners purified
Experiment [1] has as its target T1, GFP-tagged WD40 domain of human Cdh1 (aa 165–484), for SMOR (human, UniProt Q9UM11 165-484).
T1 construct: human Cdh1, WD40 domain, aa 165-484; also called hCdh1^WD40; human Cdh1^WD40; source: Sf9, baculovirus, purified (StrepTrap); not shown: 2xStrep-Tag II, N-terminal, kept; GFP, C-terminal, kept
As to the kind of experiment: single-molecule off-rate (SMOR) assay, TIRF microscopy; target held on PEG/PEG-biotin glass by NeutrAvidin and biotinylated anti-Strep-Tag II antibody (tag on the activator); dye-labeled ligand (peptide no greater than 1 nM) in buffer C + BSA (20 mM HEPES pH 7.5, 150 mM KCl, 10% glycerol, 0.05% Tween-20, 1 mM DTT) with oxygen scavengers; mean dwell time from an exponential distribution; dwell times below 100 ms ….

Experiment [2] concerns the target T2, Cdh1-activated yeast APC/C (S. cerevisiae | S. cerevisiae …, UniProt P53197 1-566; P53886 1-1748; P09798 1-840; P38042 1-758; P53068 1-250).
T2 construct: Apc1 subunit of the APC/C, from yeast strain NHY13; Cdc16 subunit of the APC/C (Cdc16-TAP); Cdc27 subunit of the APC/C; Apc10/Doc1 subunit of the APC/C; only Apc1, Cdc16, Cdc27 and Apc10 are named; the yeast strain lacks endogenous Cdh1; TEV cleavage of the TAP tag may leave part of the tag on Cdc16; also called APC/C^Cdh1; not shown: 2xStrep-Tag II, N-terminal, kept; GFP, C-terminal, kept; …
The description is as above.

The target of experiment [3] is T3, GFP-tagged WD40 domain of yeast Cdh1 (aa 241–550), for SMOR (S. cerevisiae, UniProt P53197 241-550).
T3 construct: Cdh1, S. cerevisiae, WD40 domain, aa 241-550; also called Cdh1^WD40; GFP-tagged Cdh1^WD40; source: Sf9, baculovirus, purified (StrepTrap); not shown: 2xStrep-Tag II, N-terminal, kept; GFP, C-terminal, kept
T3 sequence (looked up): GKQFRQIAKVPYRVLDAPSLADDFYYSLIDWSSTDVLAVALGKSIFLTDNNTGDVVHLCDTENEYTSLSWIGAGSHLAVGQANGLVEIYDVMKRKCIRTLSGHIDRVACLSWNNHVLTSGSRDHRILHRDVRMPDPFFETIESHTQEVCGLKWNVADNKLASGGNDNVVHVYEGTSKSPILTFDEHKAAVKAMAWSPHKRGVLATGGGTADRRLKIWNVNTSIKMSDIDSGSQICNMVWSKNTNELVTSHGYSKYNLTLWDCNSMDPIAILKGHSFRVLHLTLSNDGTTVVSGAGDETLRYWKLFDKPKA
The experiment is described as above.

Experiment [4] addresses T4, WD40 domain of Cdh1 from Saccharomyces cerevisiae (aa 241–550), for anisotropy (S. cerevisiae, UniProt P53197 241-550).
T4 construct: Cdh1, S. cerevisiae, WD40 domain, aa 241-550; Cloned into pFastBac HT A; also called Cdh1^WD40; Cdh1 WD40; source: Sf9, baculovirus, purified (StrepTrap)
T4 sequence (looked up): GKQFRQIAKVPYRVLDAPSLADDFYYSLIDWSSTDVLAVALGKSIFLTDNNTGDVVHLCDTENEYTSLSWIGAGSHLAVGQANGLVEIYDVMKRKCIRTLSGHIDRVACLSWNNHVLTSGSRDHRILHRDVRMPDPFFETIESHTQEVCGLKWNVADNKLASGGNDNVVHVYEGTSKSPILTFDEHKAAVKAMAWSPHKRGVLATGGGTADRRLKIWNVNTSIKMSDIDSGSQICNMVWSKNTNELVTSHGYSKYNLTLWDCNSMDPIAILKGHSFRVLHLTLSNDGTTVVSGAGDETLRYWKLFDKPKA
The experiment in a line: fluorescence polarisation; fluorescence anisotropy; 10 nM C-terminally Cy5-labeled peptide mixed with increasing concentrations of purified protein (Cdh1 WD40 up to 30.6 µM); wash buffer B (50 mM Tris-HCl pH 8, 150 mM KCl, 0.5 mM EDTA, 1 mM DTT, 10% glycerol); 25 °C; one-site equilibrium fit. (In fluorescence polarisation assays a small probe gives low polarisation when free and higher when bound to something large.)

For experiment [5], the target named is T4, WD40 domain of Cdh1 from Saccharomyces …. As to the kind of experiment: fluorescence polarisation; fluorescence anisotropy as a1, 10 nM labeled Hsl1 degron peptide with 100 µM unlabeled peptide of the other Hsl1 degron present.
Experiment [6] concerns the target T5, GFP-tagged WD40 domain of human Cdc20 (aa 162–484), for SMOR (human, UniProt Q12834 162-484).
T5 construct: human Cdc20, WD40 domain, aa 162-484; also called hCdc20^WD40; human Cdc20^WD40; source: Sf9, baculovirus, purified (StrepTrap); not shown: 2xStrep-Tag II, N-terminal, kept; GFP, C-terminal, kept
As to the kind of experiment: single-molecule off-rate (SMOR) assay, TIRF microscopy; target held on PEG/PEG-biotin glass by NeutrAvidin and biotinylated anti-Strep-Tag II antibody (tag on the activator); dye-labeled ligand (peptide no greater than 1 nM) in buffer C + BSA (20 mM HEPES pH 7.5, 150 mM KCl, 10% glycerol, 0.05% Tween-20, 1 mM DTT) with oxygen scavengers; mean dwell time from an exponential distribution; dwell times below 100 ms ….

Experiment [7] addresses T6, Cdc20-activated yeast APC/C (S. cerevisiae | S. cerevisiae …, UniProt P26309 1-610; P53886 1-1748; P09798 1-840; P38042 1-758; P53068 1-250).
T6 construct: Apc1 subunit of the APC/C, from yeast strain NHY13; Cdc16 subunit of the APC/C (Cdc16-TAP); Cdc27 subunit of the APC/C; Apc10/Doc1 subunit of the APC/C; only Apc1, Cdc16, Cdc27 and Apc10 are named; TEV cleavage of the TAP tag may leave part of the tag on Cdc16; also called APC/C^Cdc20; not shown: 2xStrep-Tag II, N-terminal, kept; GFP, C-terminal, kept; copies: + + + + + + + + + + + + +
The description is as above.

Experiment [8] concerns the target T1, GFP-tagged WD40 domain of human Cdh1 …. The experiment in a line: fluorescence polarisation + other: single-molecule off-rate (SMOR) assay; inferred constants: kon from the KD of anisotropy and the koff of SMOR; KD for APC/C^Cdh1 from the dwell time with the kon of Cdh1 alone assumed.
Experiment [9] concerns the target T2, Cdh1-activated yeast APC/C. The description is as above.
The target in experiment [10] is T3, GFP-tagged WD40 domain of yeast Cdh1 …. Described as above.
Experiment [11] has as its target T7, WD40 domain of human Cdc20 (aa 162–484), for anisotropy (human, UniProt Q12834 162-484).
T7 construct: human Cdc20, WD40 domain, aa 162-484; Cloned into pFastBac HT A; also called human Cdc20 WD40; source: Sf9, baculovirus, purified (StrepTrap)
As to the kind of experiment: fluorescence polarisation; fluorescence anisotropy; 10 nM C-terminally Cy5-labeled peptide mixed with increasing concentrations of purified protein (Cdh1 WD40 up to 30.6 µM); wash buffer B (50 mM Tris-HCl pH 8, 150 mM KCl, 0.5 mM EDTA, 1 mM DTT, 10% glycerol); 25 °C; one-site equilibrium fit.

For experiment [12], the target named is T8, WD40 domain of human Cdh1 (aa 165–484), for anisotropy (human, UniProt Q9UM11 165-484).
T8 construct: human Cdh1, WD40 domain, aa 165-484; Cloned into pFastBac HT A; also called human Cdh1 WD40; source: Sf9, baculovirus, purified (StrepTrap)
The description is as above.

In experiment [13] the target is T3, GFP-tagged WD40 domain of yeast Cdh1 …. As to the kind of experiment: single-molecule off-rate (SMOR) assay, TIRF microscopy; target held on PEG/PEG-biotin glass by NeutrAvidin and biotinylated anti-Strep-Tag II antibody (tag on the activator); dye-labeled ligand (peptide no greater than 1 nM) in buffer C + BSA (20 mM HEPES pH 7.5, 150 mM KCl, 10% glycerol, 0.05% Tween-20, 1 mM DTT) with oxygen scavengers; mean dwell time from an exponential distribution; dwell times below 100 ms …. This is another data set of the same source.

Several values for one entry are separate records, joined by “and”; a condition that tells them apart may be missing. Identical values can stand only once. Where no end group is shown, it is not given here. Cy5 = cyanine-5 fluorescent label

T1 sequence (Q9UM11 165-484): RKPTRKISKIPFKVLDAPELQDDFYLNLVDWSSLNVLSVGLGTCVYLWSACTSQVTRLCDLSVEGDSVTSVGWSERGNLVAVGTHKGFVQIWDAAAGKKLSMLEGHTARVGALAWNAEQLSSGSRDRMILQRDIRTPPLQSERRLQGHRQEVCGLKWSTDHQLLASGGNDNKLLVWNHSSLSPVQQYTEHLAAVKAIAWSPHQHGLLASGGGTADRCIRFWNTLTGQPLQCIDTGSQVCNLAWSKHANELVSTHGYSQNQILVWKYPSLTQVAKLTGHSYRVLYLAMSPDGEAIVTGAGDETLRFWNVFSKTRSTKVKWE
T5 sequence (Q12834 162-484): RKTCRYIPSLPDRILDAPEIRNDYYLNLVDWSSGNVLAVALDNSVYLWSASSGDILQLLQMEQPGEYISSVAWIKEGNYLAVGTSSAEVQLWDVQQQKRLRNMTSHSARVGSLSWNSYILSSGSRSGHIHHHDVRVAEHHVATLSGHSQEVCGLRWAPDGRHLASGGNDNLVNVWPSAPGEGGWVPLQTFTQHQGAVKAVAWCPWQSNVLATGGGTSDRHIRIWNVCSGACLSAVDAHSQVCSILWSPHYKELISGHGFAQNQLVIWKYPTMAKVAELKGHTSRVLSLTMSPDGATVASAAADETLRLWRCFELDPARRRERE
T7 sequence (Q12834 162-484): as above
T8 sequence (Q9UM11 165-484): as the sequence (Q9UM11 165-484) above

Regarding GVSTNKENEGPEYPTKIEK-Cy5 [Cy5-labeled Hsl1 KEN peptide], the mean dwell time in experiment [1] amounted to 1.48 s; in experiment [2], 0.185 s; in experiment [3], 0.166 s. Also, the Kd in experiment [4] was 14 µM and 12 µM. Moreover, the “fold improvement of affinity with saturating unlabeled D box peptide, against no D box peptide” value in [5] was about 4 fold.

Consider QDSKPRRALTDVPVNNNPLSQK-Cy5 [Cy5-labeled Clb5 D box peptide], for which the results for the mean dwell time in [6], in experiment [7] and in experiment [2] were 0.054 s, 0.207 s and 0.159 s, respectively.

For the molecule LIYVDKENGEPGTRK-Cy5 [Cy5-labeled hSecurin KEN box peptide], in experiment [1], the mean dwell time turned out to be 0.174 s.

With AQQQGRLPLAAKDNNRSKSFIK-Cy5 [Cy5-labeled ySecurin D box peptide], the mean dwell time in [7] came to 1.87 s; in experiment [2], 0.132 s.

PANEDKENNIVYTGK-Cy5 [Cy5-labeled ySecurin KEN peptide]: the mean dwell time in [1] stood at 0.869 s. Further, the Kd in experiment [4] is 26 µM and 40 µM.

Turning to EQKPKRAALSDITNSFNKMNK-Cy5 [Cy5-labeled Hsl1 D box peptide], the mean dwell time in experiment [6] is 1.08 s; in experiment [1], 4.52 s; in [7], 0.412 s; in experiment [2], 35.3 s; in experiment [3], 0.36 s. The association rate constant (kon) in [8] is 100000 M⁻¹ s⁻¹; in experiment [10] it was 800000 M⁻¹ s⁻¹. Moreover, the Kd is 0.036 µM in experiment [9]; about 2 µM in [11]; 3.5 µM and 4 µM in experiment [4]; about 2 µM in experiment [12]. In addition, the “fold improvement of affinity with unlabeled Hsl1 KEN peptide, against no KEN peptide” value in experiment [5] is about 3 fold. Further, the koff in experiment [13] is 2.8 s⁻¹.

Turning to LPKATRKALGTVNRATEKSVKK-Cy5 [Cy5-labeled AurKB D box peptide], the mean dwell time in [1] stood at 0.202 s.

B1: Hsl1 fragment (amino acids 667–872) with C-terminal HaloTag, mutations in the D box (domain or fragment)
chain: QNSASKRSLYSLQSISKRSLNLNDLLVFDDPLPSKKPASENVNKSEPHSLESDSDFEILCDQILFGNALDRILEEEEDNEKERDTQRQRQNDTKSSADTFTISGVSTNKENEGPEYPTKIEKNQFNMSYKPSENMSGLSSFPIFEKENTLSSSYLEEQKPKAAAASDITASFNKMNKQEGMRIEKKIQREQLQKKNDRPSPLKPIQ
modifications: JF549 or JF646 dye covalently bound to the HaloTag
For B1, the mean dwell time in [2] worked out at 0.374 s; in [3] it was 0.421 s.

Usually Kd stands for the free concentration of one partner at which half of the binding sites on the other are occupied at equilibrium, for simple one-to-one binding. One may read the kon as the second-order rate constant of association. Broadly, the koff is the rate constant with which the complex falls apart.
